Results published in the supplement of paper PMC10567573.

B1: ZNF449 (parent)
chain: FQEYDTDCEVFRQRFRQFQYREAA
B2: ZNF649 (parent)
chain: YHTGKTPFVCPECGQPCSQKSGLI

Variants of: B1
Test: protein stability index of a GFP-peptide fusion (GPS, HEK-293T) (PSI 1-6); higher = more stable
Settings: c terminus: a fixed tail appended
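Note: lentivirally expressed fusions sorted by FACS into six bins by GFP to DsRed ratio, PSI derived from sequencing read proportions per bin multiplied by bin number.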

Protein stability index, by site and new letter:
Y20: F 2.57 | L 2.83 | H 3.27 | C 2.2 | R 2.88 | N 3.48 | S 3.15 | Q 3.73 | I 3.37 | T 3.46 | V 3.27 | W 1.47 | D 3.49 | E 3.52 | M 3.03 | A 3.12 | K 3.21 | G 3.31 | P 2.81
F18: W 3.11 | Q 3.56 | T 3.11 | S 2.1 | Y 2.59 | P 2.43 | R 2.43
E22: Q 2.17 | C 2.39 | S 2.07 | I 1.99 | N 2.39 | D 2.91 | A 2.43 | L 2.22 | G 2.35 | P 1.72 | T 2.62 | V 2.12 | H 2.36 | K 2.75 | F 2.69 | Y 1.95 | R 1.65 | M 1.83
A24: M 2.13 | R 3.04 | E 2.95 | H 1.96 | I 2.08 | W 1.93 | P 2.77 | T 2.35 | V 2.13 | N 2.65 | S 2.55 | Y 2.33 | L 2.64 | D 2.8 | K 2.76 | G 2.51 | F 2.13 | Q 3.13 | C 2.96
Q19: S 2.11 | E 2.35 | K 2.44 | Y 2.22 | P 2.16 | W 2.35 | H 2.6 | V 2.48 | N 2.29 | I 2.53 | G 2.67 | A 2.81 | F 1.87 | R 2.65 | D 2.18 | C 2.02 | T 2.3 | M 2
A23: C 2.65 | P 2.39 | K 3.31 | T 2.47 | H 2.54 | Q 2.89 | N 2.7 | F 2.15 | Y 1.95 | I 1.7 | E 3.28 | M 2.43 | S 2.11 | W 1.61 | L 2.51 | R 2.97 | V 2.15 | D 2.73
R21: Y 2.54 | W 1.75 | M 2.69 | V 2.51 | L 1.91 | F 2.91 | S 2.77 | C 2.92 | P 2.44 | K 2.65 | D 3.13 | T 2.86 | H 2.53 | G 3.14 | E 3.16 | A 2.44 | I 2.71 | Q 2.96 | N 2.62

Variants of: B2
Test: as above
Settings: c terminus: a fixed tail appended

Protein stability index of substitutions, site by site:
T3: H 2.78 | E 2.85 | N 2.03 | L 1.76 | W 1.48 | P 1.61 | D 2.68 | R 2.23 | K 2.87 | C 2.38 | A 2.57 | V 2.46 | Y 1.27 | I 1.56
F8: I 2.24 | V 1.78 | M 1.62 | Q 2.69 | E 2.52 | R 2.09 | P 2.46 | D 2.17 | G 1.8 | H 2.41 | A 1.84 | C 1.83 | L 2.1 | K 1.82 | N 2.16 | S 2.15 | Y 1.54 | T 1.67
C13: T 2.99 | I 2.35 | F 2.8 | M 2.98 | Y 3.41 | V 2.13 | H 3 | R 2.37 | E 2.87 | A 3.53 | D 2.6 | P 2.27 | Q 2.54 | S 1.62 | K 3.33 | N 1.83
H2: F 2.25 | W 2.06 | G 1.98 | D 3.69 | R 2.1 | K 2.76 | Q 2.28 | M 2.51 | I 2.36 | P 2.15 | N 2.39 | V 1.96 | A 1.99 | E 3.55 | L 2.2 | Y 2.42
G4: E 2.89 | F 2.36 | I 1.69 | N 1.67 | C 2.49 | T 2.62 | Q 1.51 | V 2.88 | R 1.62 | L 2.41 | P 1.83 | Y 1.69 | A 1.49 | M 1.89 | D 2.48 | K 2.18 | H 1.96
P7: G 2.05 | W 2.04 | I 1.76 | M 1.22 | S 1.6 | L 2.12 | T 2.52 | Q 1.77 | N 1.98 | D 2.05 | C 2.26 | H 3.19 | R 1.03 | A 1.73 | E 1.44
Y1: N 3.08 | L 2.51 | W 2.48 | Q 2.47 | C 3.52 | E 3.71 | I 2.69 | K 2.72 | G 3.8 | R 2.69 | A 3.92 | D 3.98 | P 3.28 | M 1.65 | S 3.72 | T 3.06 | V 3.5 | H 3.46
G14: C 2.12 | A 2.16
V9: L 2.99 | D 2.39 | R 2.24 | Q 2.02 | A 3.38 | G 1.79 | I 2.38 | N 3 | W 2.49 | Y 3.65 | T 2.43 | F 3.17 | H 2.47 | K 1.58 | E 1.61
C10: D 1.61 | R 1.75 | H 1 | I 2.33 | G 2.31 | Q 1.27 | M 1.53 | F 1.98 | V 1.81 | T 2.37 | E 1.33 | W 2.79 | L 2.06 | P 1.54 | S 2.85 | N 2.23 | Y 2.29 | K 1.76
P11: I 1.69 | M 2.32 | F 2.44 | T 2.49 | R 1.79 | G 1.43 | S 1.93 | N 1.62 | E 1.61 | V 2.33 | H 2.16 | C 1.65 | Q 1.57 | A 2.04 | K 2.46 | D 1.4 | L 1.71
K5: Y 3.06 | N 1.81 | M 2.44 | F 1.88 | Q 1.86 | S 2.62 | E 2.16 | R 2 | W 2.1 | G 2.54 | T 1.13 | L 2 | D 1.77 | H 1.86 | P 2.66 | A 1.62
T6: C 1.45 | I 2.22 | H 2.91 | D 1.92 | P 2.19 | M 1.68 | Q 2.96 | F 2.42 | A 2.07 | W 1.96 | S 1.53 | E 2.89 | K 1.79 | G 1.71 | N 2.89 | V 1.65 | L 2.21
E12: R 2.32 | M 1.23 | A 1.96 | Y 2.26 | V 2.22 | I 1.91 | F 2.31 | D 3.08 | K 2.35 | G 3.37 | S 2.11 | N 1.53 | L 2.16 | H 1.54 | T 2.07 | Q 1.9 | W 2.06
